US20240270846A1 (published 2024)
Positions count from the first letter of the chain named. Numbers in names are those of the source.

B1: CE115HA000 H chain altered form Y55G (antibody, human IgG1, kappa, L234A L235A, N297A, name in Kabat numbering)
heavy: QVQLVESGGGVVQPGRSLRLSCAASGFTFSNAWMHWVRQAPGKGLEWVAQIKAKSNNGATYYAESVKGRFTISRDDSKNSLYLQMNSLKTEDTAVYYCRYVHYGAYYGVDAWGQGTTVTVSSASTKGPSVFPLAPSSKSTSGGTAALGCLVKDYFPEPVTVSWNSGALTSGVHTFPAVLQSSGLYSLSSVVTVPSSSLGTQTYICNVNHKPSNTKVDKKVEPKSCDKTHTCPPCPAPEAAGGPSVFLFPPKPKDTLMISRTPEVTCVVVDVSHEDPEVKFNWYVDGVEVHNAKTKPREEQYASTYRVVSVLTVLHQDWLNGKEYKCKVSNKALPAPIEKTISKAKGQPREPQVYTLPPSRCELTKNQVSLSCAVKGFYPSDIAVEWESNGQPENNYKTTPPVLDSDGSFFLVSKLTVDKSRWQQGNVFSCSVMHEALHNHYTQKSLSLSPDYKDDDDK
chain: EPKSSDKTHTCPPCPAPELLGGPSVFLFPPKPKDTLMISRTPEVTCVVVDVSHEDPEVKFNWYVDGVEVHNAKTKPREEQYNSTYRVVSVLTVLHQDWLNGKEYKCKVSNKALPAPIEKTISKAKGQPREPQVCTLPPSRDELTKNQVSLWCLVKGFYPSDIAVEWESNGQPENNYKTTPPVLDSDGSFFLYSKLTVDKSRWQQGNVFSCSVMHEALHNRYTQKSLSLSP
light: DIVMTQSPLSLPVTPGEPASISCRSSQSLVHSNRNTYLHWYQQKPGQAPRLLIYKVSNRFSGVPDRFSGSGSGTDFTLKISRVEAEDVGVYYCGQGTQVPYTFGQGTKLEIKRTVAAPSVFIFPPSDEQLKSGTASVVCLLNNFYPREAKVQWKVDNALQSGNSQESVTEQDSKDSTYSLSSTLTLSKADYEKHKVYACEVTHQGLSSPVTKSFNRGEC
notes: one-arm antibody
B2: CE115HA000 H chain altered form Y55S (antibody, human IgG1, kappa, L234A L235A, N297A, name in Kabat numbering)
heavy: B1 heavy with G58S
chain: B1 chain
light: B1 light
notes: one-arm antibody
B3: CE115HA000 H chain altered form Y58Q (antibody, human IgG1, kappa, L234A L235A, N297A, name in Kabat numbering)
heavy: B1 heavy with G58Y, Y61Q
chain: B1 chain
light: B1 light
notes: one-arm antibody
B4: CE115HA000 H chain altered form Y59A (antibody, human IgG1, kappa, L234A L235A, N297A, name in Kabat numbering)
heavy: B1 heavy with G58Y, Y62A
chain: B1 chain
light: B1 light
notes: one-arm antibody
B5: CE115HA000 H chain altered form Y58K (antibody, human IgG1, kappa, L234A L235A, N297A, name in Kabat numbering)
heavy: B1 heavy with G58Y, Y61K
chain: B1 chain
light: B1 light
notes: one-arm antibody
B6: CE115HA000 H chain altered form Y59E (antibody, human IgG1, kappa, L234A L235A, N297A, name in Kabat numbering)
heavy: B1 heavy with G58Y, Y62E
chain: B1 chain
light: B1 light
notes: one-arm antibody
B7: CE115HA000 H chain altered form Y58N (antibody, human IgG1, kappa, L234A L235A, N297A, name in Kabat numbering)
heavy: B1 heavy with G58Y, Y61N
chain: B1 chain
light: B1 light
notes: one-arm antibody
B8: CE115HA000 H chain altered form Y58D (antibody, human IgG1, kappa, L234A L235A, N297A, name in Kabat numbering)
heavy: B1 heavy with G58Y, Y61D
chain: B1 chain
light: B1 light
notes: one-arm antibody
B9: CE115HA000 H chain altered form Y58S (antibody, human IgG1, kappa, L234A L235A, N297A, name in Kabat numbering)
heavy: B1 heavy with G58Y, Y61S
chain: B1 chain
light: B1 light
notes: one-arm antibody
B10: CE115HA000 H chain altered form Y58L (antibody, human IgG1, kappa, L234A L235A, N297A, name in Kabat numbering)
heavy: B1 heavy with G58Y, Y61L
chain: B1 chain
light: B1 light
notes: one-arm antibody
B11: CE115HA000 H chain altered form Y59S (antibody, human IgG1, kappa, L234A L235A, N297A, name in Kabat numbering)
heavy: B1 heavy with G58Y, Y62S
chain: B1 chain
light: B1 light
notes: one-arm antibody
B12: CE115HA000 H chain altered form Y58A (antibody, human IgG1, kappa, L234A L235A, N297A, name in Kabat numbering)
heavy: B1 heavy with G58Y, Y61A
chain: B1 chain
light: B1 light
notes: one-arm antibody
B13: CE115HA000 H chain altered form Y59D (antibody, human IgG1, kappa, L234A L235A, N297A, name in Kabat numbering)
heavy: B1 heavy with G58Y, Y62D
chain: B1 chain
light: B1 light
notes: one-arm antibody
B14: GLS3000 H27dA (Kabat) L chain altered form, one-arm antibody with CE115HA000 (antibody, human IgG1, kappa, L234A L235A, N297A, name in Kabat numbering)
heavy: B1 heavy with G58Y
chain: B1 chain
light: B1 light with H31A
notes: one-arm antibody
B15: GLS3000 H27dI (Kabat) L chain altered form, one-arm antibody with CE115HA000 (antibody, human IgG1, kappa, L234A L235A, N297A, name in Kabat numbering)
heavy: B1 heavy with G58Y
chain: B1 chain
light: B1 light with H31I
notes: one-arm antibody
B16: GLS3000 H27dY (Kabat) L chain altered form, one-arm antibody with CE115HA000 (antibody, human IgG1, kappa, L234A L235A, N297A, name in Kabat numbering)
heavy: B1 heavy with G58Y
chain: B1 chain
light: B1 light with H31Y
notes: one-arm antibody
B17: GLS3000 H27dT (Kabat) L chain altered form, one-arm antibody with CE115HA000 (antibody, human IgG1, kappa, L234A L235A, N297A, name in Kabat numbering)
heavy: B1 heavy with G58Y
chain: B1 chain
light: B1 light with H31T
notes: one-arm antibody
B18: GLS3000 H27dS (Kabat) L chain altered form, one-arm antibody with CE115HA000 (antibody, human IgG1, kappa, L234A L235A, N297A, name in Kabat numbering)
heavy: B1 heavy with G58Y
chain: B1 chain
light: B1 light with H31S
notes: one-arm antibody
B19: GLS3000 H27dK (Kabat) L chain altered form, one-arm antibody with CE115HA000 (antibody, human IgG1, kappa, L234A L235A, N297A, name in Kabat numbering)
heavy: B1 heavy with G58Y
chain: B1 chain
light: B1 light with H31K
notes: one-arm antibody
B20: GLS3000 H27dN (Kabat) L chain altered form, one-arm antibody with CE115HA000 (antibody, human IgG1, kappa, L234A L235A, N297A, name in Kabat numbering)
heavy: B1 heavy with G58Y
chain: B1 chain
light: B1 light with H31N
notes: one-arm antibody
B21: GLS3000 H34A (Kabat) L chain altered form, one-arm antibody with CE115HA000 (antibody, human IgG1, kappa, L234A L235A, N297A, name in Kabat numbering)
heavy: B1 heavy with G58Y
chain: B1 chain
light: B1 light with H39A
notes: one-arm antibody
B22: GLS3000 H27dQ (Kabat) L chain altered form, one-arm antibody with CE115HA000 (antibody, human IgG1, kappa, L234A L235A, N297A, name in Kabat numbering)
heavy: B1 heavy with G58Y
chain: B1 chain
light: B1 light with H31Q
notes: one-arm antibody
B23: GLS3000 H27dM (Kabat) L chain altered form, one-arm antibody with CE115HA000 (antibody, human IgG1, kappa, L234A L235A, N297A, name in Kabat numbering)
heavy: B1 heavy with G58Y
chain: B1 chain
light: B1 light with H31M
notes: one-arm antibody
B24: GLS3000 H27dL (Kabat) L chain altered form, one-arm antibody with CE115HA000 (antibody, human IgG1, kappa, L234A L235A, N297A, name in Kabat numbering)
heavy: B1 heavy with G58Y
chain: B1 chain
light: B1 light with H31L
notes: one-arm antibody
B25: GLS3000 H27dW (Kabat) L chain altered form, one-arm antibody with CE115HA000 (antibody, human IgG1, kappa, L234A L235A, N297A, name in Kabat numbering)
heavy: B1 heavy with G58Y
chain: B1 chain
light: B1 light with H31W
notes: one-arm antibody
B26: GLS3000 H27dG (Kabat) L chain altered form, one-arm antibody with CE115HA000 (antibody, human IgG1, kappa, L234A L235A, N297A, name in Kabat numbering)
heavy: B1 heavy with G58Y
chain: B1 chain
light: B1 light with H31G
notes: one-arm antibody
B27: GLS3000 H27dP (Kabat) L chain altered form, one-arm antibody with CE115HA000 (antibody, human IgG1, kappa, L234A L235A, N297A, name in Kabat numbering)
heavy: B1 heavy with G58Y
chain: B1 chain
light: B1 light with H31P
notes: one-arm antibody
B28: GLS3000 F55A (Kabat) L chain altered form, one-arm antibody with CE115HA000 (antibody, human IgG1, kappa, L234A L235A, N297A, name in Kabat numbering)
heavy: B1 heavy with G58Y
chain: B1 chain
light: B1 light with F60A
notes: one-arm antibody
B29: GLS3000 H27dF (Kabat) L chain altered form, one-arm antibody with CE115HA000 (antibody, human IgG1, kappa, L234A L235A, N297A, name in Kabat numbering)
heavy: B1 heavy with G58Y
chain: B1 chain
light: B1 light with H31F
notes: one-arm antibody
B30: GLS3000 H27dV (Kabat) L chain altered form, one-arm antibody with CE115HA000 (antibody, human IgG1, kappa, L234A L235A, N297A, name in Kabat numbering)
heavy: B1 heavy with G58Y
chain: B1 chain
light: B1 light with H31V
notes: one-arm antibody
B31: GLS3000 H27dE (Kabat) L chain altered form, one-arm antibody with CE115HA000 (antibody, human IgG1, kappa, L234A L235A, N297A, name in Kabat numbering)
heavy: B1 heavy with G58Y
chain: B1 chain
light: B1 light with H31E
notes: one-arm antibody
B32: GLS3000 H27dR (Kabat) L chain altered form, one-arm antibody with CE115HA000 (antibody, human IgG1, kappa, L234A L235A, N297A, name in Kabat numbering)
heavy: B1 heavy with G58Y
chain: B1 chain
light: B1 light with H31R
notes: one-arm antibody
B33: GLS3000 H27dD (Kabat) L chain altered form, one-arm antibody with CE115HA000 (antibody, human IgG1, kappa, L234A L235A, N297A, name in Kabat numbering)
heavy: B1 heavy with G58Y
chain: B1 chain
light: B1 light with H31D
notes: one-arm antibody

target: T1, CD3 epsilon homodimer protein (UniProt P07766 23-126); experiment: SPR Biacore T200, CD3 epsilon homodimer on chip, antibody as analyte;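 note: homodimer amine-coupled to a CM4 sensor chip, run at 25 °C in HBS-EP+ buffer, with kinetic parameters derived in Biacore T200 Evaluation Software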
T1 construct: also called CD3 (CD3 epsilon)
T1 sequence (P07766 23-126): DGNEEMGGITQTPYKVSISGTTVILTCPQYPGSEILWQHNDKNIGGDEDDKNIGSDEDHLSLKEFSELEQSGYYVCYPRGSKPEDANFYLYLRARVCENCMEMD

Going from B1 to B2, the “KD ratio (KD of CE115HA000 / KD of altered form)” value rises from 0.99 to 5.65.

Going from B3 to B4, the “KD ratio (KD of CE115HA000 / KD of altered form)” value falls from 1.24 to 0.74.

Going from B5 to B6, the “KD ratio (KD of CE115HA000 / KD of altered form)” value falls from 0.66 to 0.61.

Compared with B7, B8 is higher in “KD ratio (KD of CE115HA000 / KD of altered form)” value: 1.86 for the first, 4.81 for the second.

Compared with B9, B10 is lower in “KD ratio (KD of CE115HA000 / KD of altered form)” value: 1.22 for the first, 1.21 for the second.

Going from B11 to B12, the “KD ratio (KD of CE115HA000 / KD of altered form)” value rises from 0.79 to 1.06.

For B13, the “KD ratio (KD of CE115HA000 / KD of altered form)” value was 0.66.

target: T2, CD3 epsilon homodimer protein (UniProt P07766 23-126); experiment: SPR Biacore T200, CD3 epsilon homodimer immobilized; vs unaltered GLS3000;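 note: antibody variants flowed as analyte over CD3 epsilon homodimer amine-coupled to a CM4 chip, at 25 °C in HBS-EP+ running buffer, fitted with Biacore T200 Evaluation Software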
T2 construct: construct not described; homodimer as printed; also called CD3 (CD3 epsilon)
T2 sequence (P07766 23-126): as above

Going from B14 to B15, the “KD ratio to GLS3000 (Affinity up)” value rises from 2.57 to 7.77.

Going from B16 to B17, the “KD ratio to GLS3000 (Affinity up)” value rises from 1.98 to 13000.

First: B18
Second: B19
The “KD ratio to GLS3000 (Affinity up)” value of the first is lower: 3.05 for the first, 3.8 for the second.

First: B20
Second: B21
The “KD ratio to GLS3000 (Affinity up)” value of the first is higher: 3.43 for the first, 1.18 for the second.

Compared with B22, B23 is lower in “KD ratio to GLS3000 (Affinity up)” value: 7.48 for the first, 3.43 for the second.

First: B24
Second: B25
The “KD ratio to GLS3000 (Affinity up)” value of the first is higher: 3.37 for the first, 1.86 for the second.

First: B26
Second: B27
The “KD ratio to GLS3000 (Affinity up)” value of the first is lower: 3.51 for the first, 9.21 for the second.

Going from B28 to B29, the “KD ratio to GLS3000 (Affinity up)” value rises from 1.16 to 2.05.

First: B30
Second: B31
The “KD ratio to GLS3000 (Affinity up)” value of the first is higher: 354 for the first, 42.3 for the second.

Compared with B32, B33 is higher in “KD ratio to GLS3000 (Affinity up)” value: 2.35 for the first, 13600 for the second.
